# Source: publication PMC4637903
# Target: wild-type β4 integrin (co-immunoprecipitations from transfected cells) (UniProt P16144)
# Assay: co-immunoprecipitation (IP: Myc (β4)) and Western blot, densitometry
# Conditions: parent: 1.0
# Chain of UniProt P16144 (P16144 28-1822): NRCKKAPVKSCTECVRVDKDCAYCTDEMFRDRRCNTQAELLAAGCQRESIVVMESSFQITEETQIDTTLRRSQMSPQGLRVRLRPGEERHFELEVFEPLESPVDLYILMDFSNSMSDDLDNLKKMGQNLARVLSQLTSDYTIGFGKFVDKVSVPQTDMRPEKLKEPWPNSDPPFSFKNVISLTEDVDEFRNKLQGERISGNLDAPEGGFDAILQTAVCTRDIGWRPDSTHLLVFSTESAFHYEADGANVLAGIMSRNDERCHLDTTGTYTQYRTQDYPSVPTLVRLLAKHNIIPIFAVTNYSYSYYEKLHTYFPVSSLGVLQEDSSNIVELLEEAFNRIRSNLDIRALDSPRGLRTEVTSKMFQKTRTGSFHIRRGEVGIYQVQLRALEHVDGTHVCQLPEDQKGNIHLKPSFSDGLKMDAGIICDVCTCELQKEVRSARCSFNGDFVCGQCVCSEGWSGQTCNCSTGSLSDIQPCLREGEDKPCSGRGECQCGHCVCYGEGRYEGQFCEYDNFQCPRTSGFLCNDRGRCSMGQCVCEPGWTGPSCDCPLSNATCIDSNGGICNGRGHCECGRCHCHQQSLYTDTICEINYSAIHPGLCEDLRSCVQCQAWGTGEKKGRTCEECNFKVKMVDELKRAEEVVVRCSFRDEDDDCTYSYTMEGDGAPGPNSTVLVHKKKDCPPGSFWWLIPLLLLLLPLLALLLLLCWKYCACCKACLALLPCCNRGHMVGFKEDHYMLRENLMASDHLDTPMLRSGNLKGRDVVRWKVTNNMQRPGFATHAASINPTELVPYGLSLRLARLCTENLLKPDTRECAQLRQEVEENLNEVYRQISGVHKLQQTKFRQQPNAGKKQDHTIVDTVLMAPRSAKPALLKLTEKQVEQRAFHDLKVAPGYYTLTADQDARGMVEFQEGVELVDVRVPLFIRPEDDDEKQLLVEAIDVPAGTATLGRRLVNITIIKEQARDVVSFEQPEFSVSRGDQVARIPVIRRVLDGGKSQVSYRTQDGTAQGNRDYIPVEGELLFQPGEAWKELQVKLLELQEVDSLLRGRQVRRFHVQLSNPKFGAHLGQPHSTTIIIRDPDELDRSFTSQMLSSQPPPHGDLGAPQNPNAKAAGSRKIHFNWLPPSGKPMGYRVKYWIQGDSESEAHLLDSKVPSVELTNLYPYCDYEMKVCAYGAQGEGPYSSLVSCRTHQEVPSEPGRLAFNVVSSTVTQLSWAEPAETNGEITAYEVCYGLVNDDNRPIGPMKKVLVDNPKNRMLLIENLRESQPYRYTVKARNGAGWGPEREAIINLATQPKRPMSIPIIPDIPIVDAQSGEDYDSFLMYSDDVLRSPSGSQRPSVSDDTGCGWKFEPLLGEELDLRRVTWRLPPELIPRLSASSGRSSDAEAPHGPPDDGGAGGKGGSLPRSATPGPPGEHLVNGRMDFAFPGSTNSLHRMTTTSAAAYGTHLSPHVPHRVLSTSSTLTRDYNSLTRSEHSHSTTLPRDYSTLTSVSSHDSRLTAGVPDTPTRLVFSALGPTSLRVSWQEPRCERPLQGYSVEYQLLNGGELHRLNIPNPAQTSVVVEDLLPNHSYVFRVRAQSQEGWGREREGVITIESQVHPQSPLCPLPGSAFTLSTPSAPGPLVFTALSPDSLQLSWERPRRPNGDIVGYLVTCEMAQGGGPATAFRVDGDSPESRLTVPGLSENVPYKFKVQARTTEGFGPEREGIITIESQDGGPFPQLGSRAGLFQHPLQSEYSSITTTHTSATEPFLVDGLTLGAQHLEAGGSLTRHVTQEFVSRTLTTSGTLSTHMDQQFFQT
row,ratio to parent,Substance
1,0.3,wild-type FAK (co-immunoprecipitations from transfected cells) E380A
2,0.3,wild-type FAK (co-immunoprecipitations from transfected cells) K381A
3,0.5,wild-type FAK (co-immunoprecipitations from transfected cells) R385A
4,1.2,wild-type FAK (co-immunoprecipitations from transfected cells) G383A
5,0.3,wild-type FAK (co-immunoprecipitations from transfected cells) Q382A
6,1.4,wild-type FAK (co-immunoprecipitations from transfected cells) N379A
7,1.2,wild-type FAK (co-immunoprecipitations from transfected cells) S386A

# Target: wild-type FAK (co-immunoprecipitations from transfected cells)
# Assay: as above
# Conditions: parent: 1.0
row,ratio to parent,Substance
1,1.1,wild-type β4 integrin (co-immunoprecipitations from transfected cells) (from UniProt P16144) Y1422F
2,0.3,wild-type β4 integrin (co-immunoprecipitations from transfected cells) (from UniProt P16144) Y1642F
3,0.5,wild-type β4 integrin (co-immunoprecipitations from transfected cells) (from UniProt P16144) Y1526F
4,1.1,wild-type β4 integrin (co-immunoprecipitations from transfected cells) (from UniProt P16144) Y1494F
5,1.4,wild-type β4 integrin (co-immunoprecipitations from transfected cells) (from UniProt P16144) Y1440F

# Target: wild-type β4 integrin (co-immunoprecipitations from transfected cells) (UniProt P16144)
# Assay: co-immunoprecipitation (IP: β4) and Western blot, densitometry
# Conditions: parent: 1.0
row,ratio to parent,Substance
1,0.2,wild-type FAK (co-immunoprecipitations from transfected cells) E380A; K381A; Q382A
2,0.7,wild-type FAK (co-immunoprecipitations from transfected cells) R385A; S386A
